Assay results as given in paper PMC2592539.
Square brackets hold non-standard residues; d marks the D form. Side chains are listed from the residue outwards. Ends that are not written are not given here. * marks the point of attachment. Biotin = O=C1N[C@H]2[C@H](CS[C@H]2CCCCC(=O)*)N1; Bpa = N[C@@H](Cc1ccc(C(=O)c2ccccc2)cc1)C(=O)O; PEG linker = not defined here

What was measured:
[1] = target: HLA-A0201 MHC class I molecule on T2 cells (human (endogenous in T2) | human); assay: flow cytometry on cells; T2 cells treated with 1 uM biotinylated peptide for 16 hours, no UV; peptide on the cell surface stained with anti-biotin AlexaFluor 488 antibody
[2] = target: HLA-A0201 MHC class I molecule on T2 cells (human (endogenous in T2) | human); assay: flow cytometry on cells; internalization study: T2 cells with 1 uM biotinylated peptide at 37 degrees, peptide left on; surface peptide by anti-biotin staining at 2, 6 and 24 h
[3] = target: HLA-A0201 MHC class I molecule on T2 cells (human (endogenous in T2) | human); assay: flow cytometry on cells; T2 cells treated with 1 uM biotinylated peptide for 16 hours, then exposed to UV light; peptide on the cell surface stained with anti-biotin AlexaFluor 488 antibody
[4] = target: HLA-A0201 MHC class I molecule on T2 cells (human (endogenous in T2) | human); assay: flow cytometry on cells; internalization study (pulse-chase): T2 cells with 1 uM biotinylated peptide for 2 hr at 37 degrees, washed twice, incubated a further 4 or 22 hours; surface peptide by anti-biotin staining

mean fluorescence (anti-biotin) [1]: 41.5
mean fluorescence (anti-biotin) at 2 h [2]: 8.74
mean fluorescence (anti-biotin) at 6 h [2]: 44.4
mean fluorescence (anti-biotin) at 24 h [2]: 23.4
mean fluorescence (anti-biotin) [3]: 43.2
mean fluorescence (anti-biotin) at 6 h, washed after 2 h [4]: 6.69
B1: WT1B-S1Fbz-bio (peptide)
peptide: [Bpa]LGEQ([PEG linker-Biotin])QYSV
modifications: reading uncertain
